From publication PMC8062530

Target: Siglec-9, Siglec-10, and Siglec-14
Experiment: BLI; Fc-fusions of the Siglec proteins immobilised on Protein A biosensors (ForteBio) at 5 µg/mL; PTGFRN extracellular domain in 2-fold serial dilutions starting at 100 µg/mL; equilibrium dissociation constants calculated with ForteBio Data Analysis software v. 10.0

Kd: 700 to 4000 nM
B1: extracellular domain of PTGFRN (aa 26-832) with a C-terminal histidine tag (domain or fragment)
chain: VPTATLVRVVGTELVIPCNVSDYDGPSEQNFDWSFSSLGSSFVELASTWEVGFPAQLYQERLQRGEILLRRTANDAVELHIKNVQPSDQGHYKCSTPSTDATVQGNYEDTVQVKVLADSLHVGPSARPPPSLSLREGEPFELRCTAASASPLHTHLALLWEVHRGPARRSVLALTHEGRFHPGLGYEQRYHSGDVRLDTVGSDAYRLSVSRALSADQGSYRCIVSEWIAEQGNWQEIQEKAVEVATVVIQPSVLRAAVPKNVSVAEGKELDLTCNITTDRADDVRPEVTWSFSRMPDSTLPGSRVLARLDRDSLVHSSPHVALSHVDARSYHLLVRDVSKENSGYYYCHVSLWAPGHNRSWHKVAEAVSSPAGVGVTWLEPDYQVYLNASKVPGFADDPTELACRVVDTKSGEANVRFTVSWYYRMNRRSDNVVTSELLAVMDGDWTLKYGERSKQRAQDGDFIFSKEHTDTFNFRIQRTTEEDRGNYYCVVSAWTKQRNNSWVKSKDVFSKPVNIFWALEDSVLVVKARQPKPFFAAGNTFEMTCKVSSKNIKSPRYSVLIMAEKPVGDLSSPNETKYIISLDQDSVVKLENWTDASRVDGVVLEKVQEDEFRYRMYQTQVSDAGLYRCMVTAWSPVRGSLWREAATSLSNPIEIDFQTSGPIFNASVHSDTPSVIRGDLIKLFCIITVEGAALDPDDMAFDVSWFAVHSFGLDKAPVLLSSLDRKGIVTTSRRDWKSDLSLERVSVLEFLLQVHGSEDQDFGNYYCSVTPWVKSPTGSWQKEAEIHSKPVFITVKMDVLNAFKYP
